{
  "source": "the nanobody polyreactivity screen of Harvey et al. (2022)",
  "data": [
    {"test": "yeast display, Sf9 membrane polyspecificity reagent, FACS + sequencing; frameworks hold sequencing errors", "how_it_was_run": "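Nanobodies came from a synthetic yeast display library in Saccharomyces cerevisiae BJ5465, induced with galactose for 36–48 hours and stained for 1 hour at 4 °C with 10% biotinylated, detergent-solubilized Sf9 membrane reagent. Cells were enriched on streptavidin microbeads and then FACS-sorted, with low and high (top ~1%) gates set on anti-HA fluorescence for expression and streptavidin fluorescence for reagent binding. Each polyreactivity label reflects the gate a clone came from. Genes were amplified by colony PCR, sequenced by MiSeq 2 × 250 and filtered by CDR length.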", "values": [
      {"sequence": "QVQLVESGGGLVQAGGSLRLSCAASGRTFAYNAMGWYRQAPGKERELVASITSGGSTNYSDSVKGRFTISRDNAKNTVYLQMNSLKPEDTAVYYCNKDGKYHRVLYDYCGQGTQVTVSS", "polyreactivity (PSR sort gate)": "low polyreactivity"},
      {"sequence": "QVQLVESGGGLVQAGGSLRLSCAASGLIFYFNAMGWYRQAPGKERELVASITRTGSTNYADSVKGRFTISRDNAKNTVYLQMNSLKAEDTAVYYCAAYGPVYPHEYDYWGHGTQVTVSS", "polyreactivity (PSR sort gate)": "low polyreactivity"},
      {"sequence": "QVQLVESGGGLVQAGGSLRLSCAASGSTFPWYDMGWYRQAPGKERELVADISGGTRTYYADSVKGRFTISRDNAKNTVYLQMNSLKPEDTAVYYCAVGYYWNEPLYWYGDFDYWGQGTQVTVSS", "polyreactivity (PSR sort gate)": "high polyreactivity"},
      {"sequence": "QVQLVETGGGLVQAGGSLRLSSAASGRTFYRYAMGWYRQAPGKDRELVATISRSGANTYADSVKGRFTISRDNAKNTVYLQMNSLKPEDTAVYYCNAGQYKGWGRMDYWGQGTQVTVSS", "polyreactivity (PSR sort gate)": "high polyreactivity"},
      {"sequence": "QVQLVVSGGGLVQGGGSLRLSWAASGFILALNAMGWYIQAPGKEREFVADISWSGDSTYYADSVKGRFTISRDNAKNTFYLQMNSLKPEDTAVYYCAADPYYNWGYYYWGQGTQVTVSS", "polyreactivity (PSR sort gate)": "low polyreactivity"},
      {"sequence": "QVQLVESGGGLVQAGGSLRLSCAASGSTSETYAMGWYRQAPGKERELVAAISGNGASTYYADSVKGRFTISRDNAKNTVYLQMNSLKPDDTAVYYCAAYFYYWGSTFVRYEYWGQGTQVTVSS", "polyreactivity (PSR sort gate)": "high polyreactivity"},
      {"sequence": "QVQLVESGGGLVQAGGSLRLSFAASGRTFYIYAMGLYRQDPGKEREMVAAITYGGGRTFYADSVKGRFTISRDNAKYTVYLQMNSLKPEDTAVYYCAKTDTYPRYGRGYDYWGQGTQVTVSS", "polyreactivity (PSR sort gate)": "high polyreactivity"},
      {"sequence": "QVQLVESGGGLVQAGGSLRLSCAASGSTLKYNAMGWYRQAPGKEREFVASITLSACRTYYADSVKGRFTISRDNAKNTVYLQMNSLKPEDTAVYYCAARRYFSYRYDYWGQGTQVTVSS", "polyreactivity (PSR sort gate)": "high polyreactivity"},
      {"sequence": "QVQRVESGGGLVQAGGSLRLSCAASGYTFYFYDMGWYRQAPGKERELVAAITSSGGSTYYADSVKGRFTISRDNAKNTVYLQMNSLKPEDTAVYYCNALITYSSDYWGQGTQVTVSS", "polyreactivity (PSR sort gate)": "low polyreactivity"},
      {"sequence": "QVQLVESGGGLVQAGGSLRLSCAASGGIFAVYAMGWYRQAPGKERELVAAITWRGGSTRYADSVKGRFTISRDNAKNTVHLQMNSLIPEDTAVYYCAVRSTGYPSRYYYWGQGTQVTVSS", "polyreactivity (PSR sort gate)": "high polyreactivity"},
      {"sequence": "QVQLVESGGGLVQAGGSLRLSCAASGFTFGRYAMGWYRQAPGKERELVATITRTGSTNYADSVKGRFTISRDNAKNTVYLQMNSLKPEDTAVYYCNAGPDRRVSYYRLLDHWGQGTQVTASS", "polyreactivity (PSR sort gate)": "low polyreactivity"},
      {"sequence": "QVQLVESGGGLVQAGGSLRLRCAASGSIFFHNAMGWYRQAPVKERELVATINRSDGTYYADSVKGRFTISRDNAKNTVYFQMNSLKPEDTAVYYCAVDHSFNDELDYWGQGTQVTVSS", "polyreactivity (PSR sort gate)": "low polyreactivity"},
      {"sequence": "QVQLVESGGGLVQAGGSLRFSCAASGSTFKRYTMGWYRQAPGKERELVAAISTSSGSTYYADSVKGRFTISRDNAKNSVYLQMHSLKPEDTAVYYCAAVRLRQTYPKYNYWGQGTQVTVSS", "polyreactivity (PSR sort gate)": "high polyreactivity"},
      {"sequence": "QDQLVESGGGLVQAVGSLRLSCAASGSIFSFNAIGWYRQAPGKERELVAVITQRGGSTYYADSVKGRFTISRDNAKTTVYLQMNSLKPEDTAVDYCAARTPRGYYYWGQGTQVTVSS", "polyreactivity (PSR sort gate)": "high polyreactivity"},
      {"sequence": "QVQLVESGGGLVQAGGSLRLSCAASGSIFSYNAMGWYRQAPGKERELVAVITRGGSTYYADSVKGRFTISRDNAKNTVYLQMNSLKPEDTAVYYCAAGAHRRGYDYWGQGTQVTVSS", "polyreactivity (PSR sort gate)": "high polyreactivity"},
      {"sequence": "QVQLVESGGGLVQAGGSLRLSCAASGSTFGSNDLGWYRQAPGQERELVAAITWSGGSTFYADSVKGRFTISRDNAKNTVYLQMNSLKPEDTALYSCAVSTEVNRYHAKYDYRGQGTQVTVSS", "polyreactivity (PSR sort gate)": "low polyreactivity"},
      {"sequence": "QVQLVESGGGLVQAGGSLRLSCAASGSIIGGNAMGWYRQAPGKERELVAAIRSGGRTNYADSVKGRFTISRDNAKNTVYLQMNSLKPEDTAVYYCAADYYLGGGYWGQGTQVTVSS", "polyreactivity (PSR sort gate)": "low polyreactivity"},
      {"sequence": "QVQLVESGGGLVQAGGSLRLSCAASGFTFASNDMGWYRQAPGKERELVASITKGGGRTYYADSVKGRFTISRDNAKNTVYLQMNSLKPEDTAVFYCAARQLIKYDYWGQGTQVTVSS", "polyreactivity (PSR sort gate)": "low polyreactivity"},
      {"sequence": "QVQLVESGGGLVQAGGSLRLSCAAYGSTYGTNALGWYRQAPGKERELVAAITSRVGRTYYADSVKGRFTISRDNAKNTVYLQMNSLKPEDTAVYYCAASRLVRYQSRYGSWGQGTQVTVSS", "polyreactivity (PSR sort gate)": "high polyreactivity"},
      {"sequence": "QVQLVESGGGLVQAGGSLRLSCAASGSIFSSYVMGWYRQAPGKEREVVAAITSRGGSTYYADSVKGRFTISRDNAKNTVYLQMNSLKPEDTAVYYCAKGGTTWYWSGYRSIYFRYDYWGQGTQVTVSS", "polyreactivity (PSR sort gate)": "high polyreactivity"},
      {"sequence": "QVQLVESGGGLVQAGGSLRLSCAASGSIFSPYAMGWYRQAPGKARELVAVITRSGGRTYYADSVKGRFTISRDNAKNTVYLQMNSLKPEDTAVYYCAATPKSWSSSTRDYWGQGTQVTVSS", "polyreactivity (PSR sort gate)": "high polyreactivity"},
      {"sequence": "QVQLVESGGGLVQAGGSLRLSCAASGFTFGVYAMGWYRQAPGKERELVAAITATGGSTYYADSVKGRFTISRDNAKNTVYLQMNSLKPADTEVYYCAKPDYYRMGYWVQGTQVTVSS", "polyreactivity (PSR sort gate)": "low polyreactivity"},
      {"sequence": "QVQLVESGGGLVQAGGSLRLSCAASGPMFTSNAMGWYRQAPGKERELVAAISRRGTRTYYADSVKGRFTISRDIAKHSVYLQMNSLKPEDTAVYYCAATTGEQEDYWGQGTQVTVSS", "polyreactivity (PSR sort gate)": "high polyreactivity"},
      {"sequence": "QVQLVESGGGLVQAGGSLRLSCAASGITFWSNAMGWYRQAPGKERELVAAITSGGNTNYADSVKGRFTISRDNAKNTVYLQMNSLKPEDTAVYYCAKRWTAREPWRKGMGYWGQGTQVTVSS", "polyreactivity (PSR sort gate)": "high polyreactivity"},
      {"sequence": "QVQLVESGGGLVQAGGSLRLSCAASGYIFWSNTMGWYRQAPGKERELVAAISQSTASTYYADSVKGRFTISRDNAKNTVYLQMNSLKPEDTAVYYCAAYYNFGDYEYDYWGQGTQVTVSS", "polyreactivity (PSR sort gate)": "low polyreactivity"},
      {"sequence": "QVQLVESGGGLVQAGGSLRLSCAASGSIFVYYVMGWYRQAPGKDRELVAAINSDGDGTYYADSVKGRFTISRDNAKNTVYLQMNSLKPEDTAVYYCNALNPKSYDYWGQGTQVTVSS", "polyreactivity (PSR sort gate)": "low polyreactivity"},
      {"sequence": "QVQLVESGGGLVQAGGSLRLSCAASGSTFAANAMGWYRQAPGKERELVAAIDSSTGSTYYADSVKGRFTISRDIAKNNVFLQMNRLKPEDTAVYYCNKTSFLVKLDYWGQGTQVTVSS", "polyreactivity (PSR sort gate)": "low polyreactivity"},
      {"sequence": "QVQLVESGGGLVQAGGSLRLSCAASGRTFSTNAMGWYRQAPGKERELVAAITASGGSTYYADSVKGRFTISRDNAKNTVYLQMNSLKPEDTAVYYCAKRYRAYHYGWWYDYWGQGTQVTVSS", "polyreactivity (PSR sort gate)": "high polyreactivity"},
      {"sequence": "QVQLVESGGGLVQAGGSLRLSCAASGSIFLIYAMGWYRQAPGKERELVAAITGGGTTNYADSVKGRFTISRDNAKNTVYLQMNSLKPEDTAVYYCNAVPRSWSPYRHWFDYWGQGTQVTVSS", "polyreactivity (PSR sort gate)": "low polyreactivity"},
      {"sequence": "QVQLVESGGGLVQAGGSLRLSCSASGRIFSANAMGWYRQAPVKERELVATISTGGGRTYYADSVKGRFTISRDNAKNTVYLQMNSLKPEDTAVYYCNATRNYARVRYYYWGQGNQVTVSS", "polyreactivity (PSR sort gate)": "high polyreactivity"},
      {"sequence": "QVQLVESGGGLVQAGGSLRLSCAASGSTFGWYAMGWYRQAPGKEREFVAAIRGGGSSTYYADSVKGRFTISRDNAKNTVYFQMNSLKPEDTAVYYCAAVTSQLYGNRYYYWGQGTQVTVSS", "polyreactivity (PSR sort gate)": "high polyreactivity"},
      {"sequence": "QVQLVESGGGLVQAGGSLRLSCAASGRIFAVYAMGWYRQAPGKEREFVAAISYSGGITYYADSVKGRFTISRDTAKNTVYLQMNSLKPEDTAVYYCNAYYYFWGQGTQVTVSS", "polyreactivity (PSR sort gate)": "low polyreactivity"},
      {"sequence": "QVQLVESGGGLVQAGGSLRLSCAASGSIFTSYAMGWYRHAPGKERELVAAITSTGGSTYYADSVKGRFTISRDNAKNTVYLQMNSLKPEDTAVYYCNADGGTPYDYWGQGTQVTVSS", "polyreactivity (PSR sort gate)": "low polyreactivity"},
      {"sequence": "QVQLVESGGGLVQAGGSLRLSSAASGSTFFLYGMRWYSQPPGKERQLVAAITWNGGSTSYADSVKGRFTISRDIAKFTVYLQMNSLKPEDTAVYYWAADYYGYFSTAYEYWGQGTQVTVSS", "polyreactivity (PSR sort gate)": "low polyreactivity"},
      {"sequence": "QVQRVESGGGLVQAGGSLRLTCAASGFTFVYYPMGWYRQAPGKVREWVAVISYSGTNTRYADSVKRRFTISRDNAKITVYLQMNSLKPEDTAVYYCAAEIYYVSWYDYWGQGTQVTVSS", "polyreactivity (PSR sort gate)": "high polyreactivity"},
      {"sequence": "QVQLVESGGGLVQARGSLRLSCAASGSTLTRNTMGGYRQAPGKERELVAGITRSGSSTYYADSVKGRFTISRDNAKNTVYLQMNSLKPEDTAVYYCAAPYRYRQNLGYWGQGTQVTVSS", "polyreactivity (PSR sort gate)": "high polyreactivity"},
      {"sequence": "QVQLVESGGGLVQAGGSLRLSCAASGSIFWNNAMGWYRQAPGKERELVAAISKSGTRTYYADSVKGRFTISRDNAKNTFYLQMNSLKPEDTAVYYCAKDPYGRLQPRPRFGYWGQGTQVTVSS", "polyreactivity (PSR sort gate)": "high polyreactivity"},
      {"sequence": "QVQLVESGGGLVQAGGSLRLICAASGSIFPHYAMGWYRPAPGKERELVAAISRGGSTNYADSVKGRFTISRDNAKNTVYLQMNSLKPEDTAVYYCNALRYYSRFMYAVAYRYDYWGQGTQVTVSS", "polyreactivity (PSR sort gate)": "high polyreactivity"},
      {"sequence": "QVQLVESGGGLVQAGGSLRLSCAASGLTLGSYAMGWYRQAPGKERELVAAISRRSGRTYYADSVKGRFTISRDNAKNTVYLKMNSLKPEDTAVDYCNRGYTAQVYTEFDYWGQGTQVTVSS", "polyreactivity (PSR sort gate)": "low polyreactivity"},
      {"sequence": "QVQLVESGGRLVQAGGSLRLSCAASGSTFSPYTMGCYRQAPGKERELVAGISKSGGRTYYADSVKGRFTISRDNAKNTVYLQMNCLKREVTAVYYCATRSTTDFYCGQGTQVTVSS", "polyreactivity (PSR sort gate)": "high polyreactivity"},
      {"sequence": "QVQLVESGGGLVQAGGSLRLSCAASGRIFNKYTMGWYRQAPGKERELVAAIRGRGGSTYYADSVKGRFTISRDNAKNTVYLQMNSLKPEDTAVYYCAADSGPFYSKTPTRYGYWGQGTQVTVSS", "polyreactivity (PSR sort gate)": "high polyreactivity"},
      {"sequence": "QVQLVESGGGLVQAGGSLRLSCAASGGTFSYYAMGWYRQAPGKERELVAAINWSGASTYYADSVKGRFTISRDNAKNTVYLQMNSLKPEDTAVYYCNVYLGILYKYDYWGQGTQVTVSS", "polyreactivity (PSR sort gate)": "low polyreactivity"},
      {"sequence": "QVQLVESGGGLVQAGGSLRLSCAASGSTFYSNAMGWYRQAPGKERELVAAIDWGGGSTYYADSVKGRFTISRDNAKNTVYLQMNSLKPEDTAVYYCATDANGYYNYDYWGQGTQVTVSS", "polyreactivity (PSR sort gate)": "low polyreactivity"}
    ]}
  ]
}
